Target: total elastase activity of relaxin-stimulated cultured SUI vaginal fibroblasts
Assay: cell-based or functional assay

alpha-1 antitrypsin (from UniProt P01009 25-418)
inhibition of total elastase activity: 98%
